Columns and labels:
[1] = target: T1, Fis (Escherichia coli DH5alpha, UniProt P0A6R3 1-98); assay: EMSA; significant complex at 0.25 uM Fis, stronger than FIS2; salmon sperm DNA; 20 mM HEPES (pH not stated), 150 mM NaCl, 500 ug/mL BSA, 1 mM DTT, 0.1 mM EDTA, 0.5-1 ug/ul salmon sperm DNA, room temperature 30 min; DNA 100 nM or 500 nM-1 uM (Methods); 6% gel, 0.5x TBE; conditions: protein: recombinant; tags: N-terminal GST (pGEX-KG); label: 5'-biotin on forward strand; blunt
[2] = target: T1, Fis; assay: EMSA; complex detectable at 0.25-0.50 uM Fis; salmon sperm DNA; 20 mM HEPES (pH not stated), 150 mM NaCl, 500 ug/mL BSA, 1 mM DTT, 0.1 mM EDTA, 0.5-1 ug/ul salmon sperm DNA, room temperature 30 min; DNA 100 nM or 500 nM-1 uM (Methods); 6% gel, 0.5x TBE; conditions: protein: recombinant; tags: N-terminal GST (pGEX-KG); label: 5'-biotin on forward strand; blunt

T1 sequence (P0A6R3 whole entry): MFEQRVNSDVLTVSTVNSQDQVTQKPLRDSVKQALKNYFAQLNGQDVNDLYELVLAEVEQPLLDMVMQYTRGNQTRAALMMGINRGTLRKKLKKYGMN

| Binder | binding result [1] | binding result [2] |
| --- | --- | --- |
| FIS2m2 (dsDNA, O6-methylguanine at nt 12 and 15 of strand 1 (positions -2, +1)) DNA 1: AAATTTGTTTGGGCGCTGAGCAAATTT DNA 2: AAATTTGCTCAGCGCCCAAACAAATTT | binds |  |
| FIS1 (dsDNA) DNA 1: AAATTTGTTTGAATTTTGAGCAAATTT DNA 2: AAATTTGCTCAAAATTCAAACAAATTT |  | binds |

Reference: article PMC3547798, “Binding of Nucleoid-Associated Protein Fis to DNA Is Regulated by DNA Breathing Dynamics”
